Measurements reported in the RNAGym collection of RNA variant scans (doi:10.7554/elife.80360).

B1: HDV Ribozyme (parent)
chain: GGCCGGCAUGGUCCCAGCCUCCUCGCUGGCGCCGGCUGGGCAACAUUCCGAGGGGACCGUCCCCUCGGUAAUGGCGAAUGGGACCCA

Variants of: B1
Experiment: self-cleavage, relative activity (ratio to wild type); higher = more cleavage; co-transcriptional
C36A C84A showed a self-cleavage of 0.192. C36A C86G showed a self-cleavage of 0.325. With C36A C86U the self-cleavage was 0.17. For G35A U37A, the self-cleavage was 0.0898. G35A U37C showed a self-cleavage of 0.396. Variant G35A U37G has a self-cleavage of 0.163. Work on G35U A87U yielded a self-cleavage of 0.451. For G35C G81A, the self-cleavage was 0.0332. G35C G81C gave a self-cleavage of 0.19. In the case of G35A C58U, the self-cleavage is reported as 0.478. G35A C58A showed a self-cleavage of 0.46. With G35A C58G the self-cleavage was 0.594. C36A C58G gave a self-cleavage of 0.119. With C36A C58A the self-cleavage was 0.227. Work on C36A C58U yielded a self-cleavage of 0.222. For G35C C85U, the self-cleavage was 0.308. G35C C41U showed a self-cleavage of 0.0978. G35A C36U gave a self-cleavage of 0.0817. G35A C36G gave a self-cleavage of 0.35. G35C G53U showed a self-cleavage of 0.204. C36A C62U gave a self-cleavage of 0.175. With C36A C62A the self-cleavage was 0.261. In the case of G35C A42U, the self-cleavage is reported as 0.0339. G35C G67U showed a self-cleavage of 0.133. G35C G67C showed a self-cleavage of 0.0519. G35C C36A showed a self-cleavage of 0.119. Work on G35C C36U yielded a self-cleavage of 0.108. G35U G52A gave a self-cleavage of 0.483. With G35U G52U the self-cleavage was 0.459. Work on G35C C62A yielded a self-cleavage of 0.277. G35A A45G gave a self-cleavage of 0.443. In the case of G35U G50U, the self-cleavage is reported as 0.426. Variant G35U G50C has a self-cleavage of 0.443. Variant G35U G50A has a self-cleavage of 0.472. For G35U A51U, the self-cleavage was 0.471. C36A A56G showed a self-cleavage of 0.145. In the case of G35A U65C, the self-cleavage is reported as 0.521. G35U U60A gave a self-cleavage of 0.415. With G35U U60C the self-cleavage was 0.317. With G35C G50U the self-cleavage was 0.272. Variant G35C G50A has a self-cleavage of 0.0528. With G34U G82U the self-cleavage was 0.0631. Work on G34U G82C yielded a self-cleavage of 0.138. In the case of C36A C44G, the self-cleavage is reported as 0.125. In the case of G35C C86U, the self-cleavage is reported as 0.415. In the case of G35U C66U, the self-cleavage is reported as 0.459. Variant G35U G67U has a self-cleavage of 0.391. Variant G35U U79G has a self-cleavage of 0.0426. G35U U79C showed a self-cleavage of 0.0992. Work on C36A G40C yielded a self-cleavage of 0.102. C36A G40A gave a self-cleavage of 0.234. Work on C36A G40U yielded a self-cleavage of 0.161. Variant G35C C58A has a self-cleavage of 0.175. Work on G35C C63U yielded a self-cleavage of 0.492. Variant G35C C63A has a self-cleavage of 0.259. In the case of G35A A83U, the self-cleavage is reported as 0.507. In the case of G35A A83G, the self-cleavage is reported as 0.258. In the case of C36A, the self-cleavage is reported as 0.147. G35U G53U showed a self-cleavage of 0.288. C36A A77U showed a self-cleavage of 0.217. C36A A77C gave a self-cleavage of 0.259. C36A A83U showed a self-cleavage of 0.0219. C36A A70C showed a self-cleavage of 0.128. With G34U G39A the self-cleavage was 0.174. In the case of G35U A78G, the self-cleavage is reported as 0.0723. In the case of G34U U79C, the self-cleavage is reported as 0.201. Variant G34U U79A has a self-cleavage of 0.138. Variant G35C G82U has a self-cleavage of 0.0723. In the case of G35C G82C, the self-cleavage is reported as 0.0519. With G35A C64A the self-cleavage was 0.379. G35C C75U showed a self-cleavage of 0.0692. For C36A A42U, the self-cleavage was 0.122. Variant C36A C49U has a self-cleavage of 0.116. C36A C49A gave a self-cleavage of 0.0554. With G35C A87G the self-cleavage was 0.205. Variant G35C A87C has a self-cleavage of 0.0866. In the case of G35A A87C, the self-cleavage is reported as 0.444. Work on G35A A87G yielded a self-cleavage of 0.473. Variant G35C G76A has a self-cleavage of 0.514. Variant G35C G76C has a self-cleavage of 0.305. With G35A U79A the self-cleavage was 0.47. For G34U G67C, the self-cleavage was 0.22. G34U G67A gave a self-cleavage of 0.115. Variant G34U G67U has a self-cleavage of 0.231. G35C G74A showed a self-cleavage of 0.0779. G35C U65A showed a self-cleavage of 0.233. Work on G35C U65C yielded a self-cleavage of 0.219. In the case of G35C U65G, the self-cleavage is reported as 0.314. Variant G34U U72A has a self-cleavage of 0.151. For G34U U72C, the self-cleavage was 0.164. Variant G35U U47A has a self-cleavage of 0.332. G35C U46C gave a self-cleavage of 0.185. In the case of C36A A45C, the self-cleavage is reported as 0. For C36A A45G, the self-cleavage was 0.256. For G35U G80A, the self-cleavage was 0.101. For G35U G80C, the self-cleavage was 0.0567. In the case of G35U C48A, the self-cleavage is reported as 0.49. For G35U C48G, the self-cleavage was 0.312. C36A C48U gave a self-cleavage of 0.116. In the case of G35A G38U, the self-cleavage is reported as 0.145. G35A G38A gave a self-cleavage of 0.0923. Variant G35C C48G has a self-cleavage of 0.485. G35C C48U showed a self-cleavage of 0.271. C36A C63G gave a self-cleavage of 0.208. For C36A C63U, the self-cleavage was 0.177. With C36A G50U the self-cleavage was 0.0923. C36A G50A showed a self-cleavage of 0.151. In the case of G35A C86G, the self-cleavage is reported as 0.739. Variant G35A G39A has a self-cleavage of 0.219. For G35A G39U, the self-cleavage was 0.128. For G35A U46A, the self-cleavage was 0.332. For G35C A51U, the self-cleavage was 0.396. For C36A C57G, the self-cleavage was 0.0898. In the case of C36A C57A, the self-cleavage is reported as 0.297. Variant G35A U72A has a self-cleavage of 0.208. Work on G35U G38A yielded a self-cleavage of 0.0702. G35C U69A showed a self-cleavage of 0.443. Work on G35C U69G yielded a self-cleavage of 0.277. G35C C66U gave a self-cleavage of 0.229. G35C C66A gave a self-cleavage of 0.253. Variant G35A A78G has a self-cleavage of 0.138. G35A A78U showed a self-cleavage of 0.253. Variant G35C U37A has a self-cleavage of 0. Work on G35C U37G yielded a self-cleavage of 0.0504. Work on G35U A43G yielded a self-cleavage of 0.185. In the case of G35U A43U, the self-cleavage is reported as 0.282. In the case of G35U G39U, the self-cleavage is reported as 0.0941. In the case of G35A A77C, the self-cleavage is reported as 0.131. Variant G35A A77U has a self-cleavage of 0.253. With G34U U65G the self-cleavage was 0.146. G34U U65C gave a self-cleavage of 0.197. G35U G55U showed a self-cleavage of 0.508. G35A C84A gave a self-cleavage of 0.62. G35A C84U showed a self-cleavage of 0.464. With G35C C57U the self-cleavage was 0.185. Variant G35A G40C has a self-cleavage of 0.163. For G35C G38A, the self-cleavage was 0.155. For G35C G38C, the self-cleavage was 0.128. Variant G34U G73C has a self-cleavage of 0.289. G35C A77C showed a self-cleavage of 0.0898. G35C A77G showed a self-cleavage of 0.18. In the case of G35C A77U, the self-cleavage is reported as 0.181. In the case of G35U A71U, the self-cleavage is reported as 0.178. For G35U A71C, the self-cleavage was 0.237. Variant G35U A71G has a self-cleavage of 0.308. G35C G59C gave a self-cleavage of 0.424. With G35C G59U the self-cleavage was 0.204. With G34U U69G the self-cleavage was 0.0361. G34U G74C showed a self-cleavage of 0.138. G35C G68C gave a self-cleavage of 0.356. C36A C41G gave a self-cleavage of 0.18. Variant C36A C41U has a self-cleavage of 0.171. C36A C41A showed a self-cleavage of 0.102. Variant G34U G68U has a self-cleavage of 0.0966. For G34U G68C, the self-cleavage was 0.322. G35A C61G gave a self-cleavage of 0.465. For G35A C61A, the self-cleavage was 0.635. G35U C49A showed a self-cleavage of 0.499. With G34U G53U the self-cleavage was 0.223. Work on G34U G55A yielded a self-cleavage of 0.114. For G34U G55C, the self-cleavage was 0.102. For G35U U72G, the self-cleavage was 0.151. Work on G35C U79A yielded a self-cleavage of 0.122. With G35C U79C the self-cleavage was 0.132. Variant G34U G50C has a self-cleavage of 0.0906. For G34U G50A, the self-cleavage was 0.312. G35U C36U showed a self-cleavage of 0.101.
